# Reference: IntAct's records for PubMed 17064696
# B1: Sphingosine kinase 1 (Homo sapiens), Q9NYA1 (parent)
# chain: MDPAGGPRGVLPRPCRVLVLLNPRGGKGKALQLFRSHVQPLLAEAEISFTLMLTERRNHARELVRSEELGRWDALVVMSGDGLMHEVVNGLMERPDWETAIQKPLCSLPAGSGNALAASLNHYAGYEQVTNEDLLTNCTLLLCRRLLSPMNLLSLHTASGLRLFSVLSLAWGFIADVDLESEKYRRLGEMRFTLGTFLRLAALRTYRGRLAYLPVGRVGSKTPASPVVVQQGPVDAHLVPLEEPVPSHWTVVPDEDFVLVLALLHSHLGSEMFAAPMGRCAAGVMHLFYVRAGVSRAMLLRLFLAMEKGRHMEYECPYLVYVPVVAFRLEPKDGKGVFAVDGELMVSEAVQGQVHPNYFWMVSGCVEPPPSWKPQQMPPPEEPL
# Variants of: B1
# Conditions: with catb_human CTSB
row,effect of a mutation on the interaction,Variant
1,decreasing interaction,MDPAGGPRGVLPRPCRVLVLLNPRGGKGKALQLFRSHVQPLLAEAEISFTLMLTERRNHARELVRSEELGRWDALVVMSGDGLMHEVVNGLMERPDWETAIQKPLCSLPAGSGNALAASLEHYAGYEQVTNEDLLTNCTLLLCRRLLSPMNLLSLHTASGLRLFSVLSLAWGFIADVDLESEKYRRLGEMRFTLGTFLRLAALRTYRGRLAYLPVGRVGSKTPASPVVVQQGPVDAHLVPLEEPVPSHWTVVPDEDFVLVLALLHSHLGSEMFAAPMGRCAAGVMHLFYVRAGVSRAMLLRLFLAMEKGRHMEYECPYLVYVPVVAFRLEPKDGKGVFAVDGELMVSEAVQGQVHPNYFWMVSGCVEPPPSWKPQQMPPPEEPL [N121E]

# Variants of: B1
# Conditions: with catb_human CTSB
# Remark: another data set of the same source
row,effect of a mutation on the interaction,Variant
1,decreasing interaction,MDPAGGPRGVLPRPCRVLVLLNPRGGKGKALQLFRSHVQPLLAEAEISFTLMLTERRNHARELVRSEELGRWDALVVMSGDGLMHEVVNGLMERPDWETAIQKPLCSLPAGSGNALAASLNYYAGYEQVTNEDLLTNCTLLLCRRLLSPMNLLSLHTASGLRLFSVLSLAWGFIADVDLESEKYRRLGEMRFTLGTFLRLAALRTYRGRLAYLPVGRVGSKTPASPVVVQQGPVDAHLVPLEEPVPSHWTVVPDEDFVLVLALLHSHLGSEMFAAPMGRCAAGVMHLFYVRAGVSRAMLLRLFLAMEKGRHMEYECPYLVYVPVVAFRLEPKDGKGVFAVDGELMVSEAVQGQVHPNYFWMVSGCVEPPPSWKPQQMPPPEEPL [H122Y]

# Variants of: B1
# Conditions: with catb_human CTSB
# Remark: another data set of the same source
row,effect of a mutation on the interaction,Variant
1,decreasing interaction,MDPAGGPRGVLPRPCRVLVLLNPRGGKGKALQLFRSHVQPLLAEAEISFTLMLTERRNHARELVRSEELGRWDALVVMSGDGLMHEVVNGLMERPDWETAIQKPLCSLPAGSGNALAASLNHAAGYEQVTNEDLLTNCTLLLCRRLLSPMNLLSLHTASGLRLFSVLSLAWGFIADVDLESEKYRRLGEMRFTLGTFLRLAALRTYRGRLAYLPVGRVGSKTPASPVVVQQGPVDAHLVPLEEPVPSHWTVVPDEDFVLVLALLHSHLGSEMFAAPMGRCAAGVMHLFYVRAGVSRAMLLRLFLAMEKGRHMEYECPYLVYVPVVAFRLEPKDGKGVFAVDGELMVSEAVQGQVHPNYFWMVSGCVEPPPSWKPQQMPPPEEPL [Y123A]
